Test results reported in US6489103.

Test system: M.HhaI DNA methyltransferase (Haemophilus parahaemolyticus)
Experiment: cleavage_in_vitro
Conditions: up to 20% of compartmentalised genes protected from HhaI after 60-180 min; HaeIII and EcoRI sites not protected; SAM 80 uM, 25-30 C

Substance: DIG-M.HhaI-Biotin 1167 bp fragment
- activity: 20%
